Reference: patent US20240383964A1, “De Novo Designed alpha(5) beta(1) Integrin selective minibinders” (UNIVERSITY OF WASHINGTON, priority 2023, published 2024)

How the values were obtained:
integrin avb8 = integrin avb8 (Homo sapiens, UniProt P06756+P26012); experiment: BLI cross specificity, integrin avb8; format: binding; conditions: 500 nM integrin (FIG. 2B legend: 500 nM or 1000 nM), integrin assay buffer
[1] = biological target: T1, α5β1 on K562 cells wild type (Homo sapiens, UniProt P05556+P08648); experiment: Cell surface titration of minibinder on wild type cells; format: cell-based; conditions: α5β1 the only RGD binding integrin expressed
T1 construct: endogenous in cells; host or cells: K562 wild type (printed 'A562')
Procedure: (§1) FIG. 2. (A) BLI binding affinity traces for minibinder or ^8RGD^10/GGG mutant against α5β1 in indicated buffers. Minibinder affinity to integrin α5β1 is dependent on metal ion presence and RGD motif. All affinity data was collected by Octet™ R8 and binding affinity was estimated by the Octet™ ForteBio software package. (B) Minibinder has no detectable affinity in presence of 500 nM or 1000 nM integrin αvβ1, αvβ3, αvβ6, αvβ8 and α8β1. (C) Cell surface titration of minibinder 4584_V5.3 and 00179_v4.1 against K562 cells wild type. […] Integrin α5 subunit and β1 subunit were stained with integrin α5 and active integrin β1 subunit specific antibody, respectively. (E) Quantification of (D). Quantification was counted as a percentage of mb-sheets that colocalized with staining of a5 and b1, a5 only, b1 only, or none; 30-35 sheets were counted in each biological repeat. […] Vascular stability was analyzed at 12-h timepoints. […] (G) Quantification of (F). The number of nodes, meshes, and tubes from images in (F) were quantified using an angiogenesis analyzer plug-in in ImageJ. Statistical significance of each were analyzed using One-way Anova Bonferroni's multiple comparison test. […] The wound area of T0 and T12 time points were quantified using imageJ and level of cell migration were calculated using this equation (AreaT0-T12)/AreaT0, all samples were normalized to PBS as fold change. […]

[2] = biological target: T2, active form of integrin α5β1 (Homo sapiens, UniProt P05556+P08648); experiment: Colocalization of minibinder conjugated to GFP-tagged protein sheets with integrin staining; format: cell-based; conditions: α5 and active β1 specific antibodies
T2 construct: endogenous in cells
Procedure: as §1

HUVECs [3] = experiment: Tube formation assay; format: cell-based, human
Procedure: as §1

integrin avb1 = integrin avb1 (Homo sapiens, UniProt P05556+P06756); experiment: BLI cross specificity, integrin avb1; format: binding; conditions: 500 nM integrin (FIG. 2B legend: 500 nM or 1000 nM), integrin assay buffer
HUVECs [4] = experiment: Scratch-wound cell migration assay; format: cell-based, human; conditions: 20 nM, 12 hours, compared to PBS control
Procedure: FIG. 2. (A) BLI binding affinity traces for minibinder or ^8RGD^10/GGG mutant against α5β1 in indicated buffers. Minibinder affinity to integrin α5β1 is dependent on metal ion presence and RGD motif. All affinity data was collected by Octet™ R8 and binding affinity was estimated by the Octet™ ForteBio software package. (B) Minibinder has no detectable affinity in presence of 500 nM or 1000 nM integrin αvβ1, αvβ3, αvβ6, αvβ8 and α8β1. (C) Cell surface titration of minibinder 4584_V5.3 and 00179_v4.1 against K562 cells wild type. […] Integrin α5 subunit and β1 subunit were stained with integrin α5 and active integrin β1 subunit specific antibody, respectively. (E) Quantification of (D). Quantification was counted as a percentage of mb-sheets that colocalized with staining of a5 and b1, a5 only, b1 only, or none; 30-35 sheets were counted in each biological repeat. […] Minibinders were added to HUVEC cells at 0, 0.1, 1, 10, and 100 nM. Vascular stability was analyzed at 12-h timepoints. 20 images were taken in each well at random locations. The scale bar is 100 μm. (G) Quantification of (F). The number of nodes, meshes, and tubes from images in (F) were quantified using an angiogenesis analyzer plug-in in ImageJ. Statistical significance of each were analyzed using One-way Anova Bonferroni's multiple comparison test. […] The wound area of T0 and T12 time points were quantified using imageJ and level of cell migration were calculated using this equation (AreaT0-T12)/AreaT0, all samples were normalized to PBS as fold change.
The inhibitory effect of 20 nM soluble 00179_v4.1 on cell migration was assessed using the scratch-wound assay. HUVECs were seeded with either 00179_v4.1 or PBS (used as a […] control) for 12 hours before capturing images for analysis.

integrin a8b1 = integrin a8b1 (Homo sapiens, UniProt P05556+P53708); experiment: BLI cross specificity, integrin a8b1; format: binding; conditions: 500 nM integrin (FIG. 2B legend: 500 nM or 1000 nM), integrin assay buffer
integrin avb6 = integrin avb6 (Homo sapiens, UniProt P06756+P18564); experiment: BLI cross specificity, integrin avb6; format: binding; conditions: 500 nM integrin (FIG. 2B legend: 500 nM or 1000 nM), integrin assay buffer

T2 sequence (P08648 42-894 limits assumed): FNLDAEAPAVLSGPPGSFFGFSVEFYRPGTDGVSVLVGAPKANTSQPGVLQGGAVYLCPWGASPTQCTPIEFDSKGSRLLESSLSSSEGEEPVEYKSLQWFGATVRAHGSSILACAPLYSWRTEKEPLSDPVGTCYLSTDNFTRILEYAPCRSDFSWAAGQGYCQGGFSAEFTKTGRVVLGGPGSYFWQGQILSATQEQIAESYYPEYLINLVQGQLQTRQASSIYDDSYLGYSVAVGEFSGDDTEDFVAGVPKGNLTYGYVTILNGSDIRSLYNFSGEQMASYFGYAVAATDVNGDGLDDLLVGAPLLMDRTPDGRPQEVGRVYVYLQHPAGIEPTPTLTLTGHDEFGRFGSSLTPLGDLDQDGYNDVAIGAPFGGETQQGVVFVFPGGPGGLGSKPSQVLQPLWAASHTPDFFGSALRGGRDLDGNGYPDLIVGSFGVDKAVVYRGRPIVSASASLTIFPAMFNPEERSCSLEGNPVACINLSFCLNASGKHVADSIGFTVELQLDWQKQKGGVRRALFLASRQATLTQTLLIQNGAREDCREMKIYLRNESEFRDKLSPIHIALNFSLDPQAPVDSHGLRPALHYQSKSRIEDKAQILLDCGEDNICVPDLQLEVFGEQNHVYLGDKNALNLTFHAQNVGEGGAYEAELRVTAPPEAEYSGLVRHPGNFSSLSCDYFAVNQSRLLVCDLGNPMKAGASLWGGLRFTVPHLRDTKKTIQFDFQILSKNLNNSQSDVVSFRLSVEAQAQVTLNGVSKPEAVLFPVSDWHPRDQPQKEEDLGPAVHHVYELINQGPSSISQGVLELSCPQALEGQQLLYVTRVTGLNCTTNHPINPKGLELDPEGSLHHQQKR
T2 sequence (P08648 895-1049 partner limits assumed): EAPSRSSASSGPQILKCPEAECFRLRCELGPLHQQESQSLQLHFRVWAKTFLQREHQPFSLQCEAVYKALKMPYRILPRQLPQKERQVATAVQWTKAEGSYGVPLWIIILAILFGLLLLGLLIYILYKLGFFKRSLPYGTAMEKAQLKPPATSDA
T2 sequence (P05556 21-798): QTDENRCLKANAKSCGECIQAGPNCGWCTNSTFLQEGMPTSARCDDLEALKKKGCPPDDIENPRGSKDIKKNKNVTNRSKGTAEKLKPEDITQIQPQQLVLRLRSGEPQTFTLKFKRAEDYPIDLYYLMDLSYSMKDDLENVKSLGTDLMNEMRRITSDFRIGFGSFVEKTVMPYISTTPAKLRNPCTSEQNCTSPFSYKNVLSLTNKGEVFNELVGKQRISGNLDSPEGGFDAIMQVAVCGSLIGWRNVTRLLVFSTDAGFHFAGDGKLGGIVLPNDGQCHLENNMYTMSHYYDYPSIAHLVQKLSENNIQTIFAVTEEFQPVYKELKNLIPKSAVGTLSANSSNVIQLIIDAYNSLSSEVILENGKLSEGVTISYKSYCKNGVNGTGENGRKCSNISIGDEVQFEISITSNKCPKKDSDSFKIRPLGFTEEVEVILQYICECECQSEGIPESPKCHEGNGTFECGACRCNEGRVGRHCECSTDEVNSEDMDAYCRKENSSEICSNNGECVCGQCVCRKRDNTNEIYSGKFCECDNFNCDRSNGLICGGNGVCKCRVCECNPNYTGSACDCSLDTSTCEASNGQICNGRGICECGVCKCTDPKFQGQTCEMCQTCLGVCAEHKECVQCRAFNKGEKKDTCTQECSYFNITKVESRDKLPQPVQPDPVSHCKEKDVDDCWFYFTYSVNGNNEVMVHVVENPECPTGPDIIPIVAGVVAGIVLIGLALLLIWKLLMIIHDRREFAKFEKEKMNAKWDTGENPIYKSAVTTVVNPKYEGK
T1 sequence (P08648 42-894 limits assumed): as the sequence (P08648 42-894 limits assumed) above
T1 sequence (P08648 895-1049 partner limits assumed): as the sequence (P08648 895-1049 partner limits assumed) above
T1 sequence (P05556 21-798): as the sequence (P05556 21-798) above
Chain of integrin a8b1 (P53708 39-906 limits assumed): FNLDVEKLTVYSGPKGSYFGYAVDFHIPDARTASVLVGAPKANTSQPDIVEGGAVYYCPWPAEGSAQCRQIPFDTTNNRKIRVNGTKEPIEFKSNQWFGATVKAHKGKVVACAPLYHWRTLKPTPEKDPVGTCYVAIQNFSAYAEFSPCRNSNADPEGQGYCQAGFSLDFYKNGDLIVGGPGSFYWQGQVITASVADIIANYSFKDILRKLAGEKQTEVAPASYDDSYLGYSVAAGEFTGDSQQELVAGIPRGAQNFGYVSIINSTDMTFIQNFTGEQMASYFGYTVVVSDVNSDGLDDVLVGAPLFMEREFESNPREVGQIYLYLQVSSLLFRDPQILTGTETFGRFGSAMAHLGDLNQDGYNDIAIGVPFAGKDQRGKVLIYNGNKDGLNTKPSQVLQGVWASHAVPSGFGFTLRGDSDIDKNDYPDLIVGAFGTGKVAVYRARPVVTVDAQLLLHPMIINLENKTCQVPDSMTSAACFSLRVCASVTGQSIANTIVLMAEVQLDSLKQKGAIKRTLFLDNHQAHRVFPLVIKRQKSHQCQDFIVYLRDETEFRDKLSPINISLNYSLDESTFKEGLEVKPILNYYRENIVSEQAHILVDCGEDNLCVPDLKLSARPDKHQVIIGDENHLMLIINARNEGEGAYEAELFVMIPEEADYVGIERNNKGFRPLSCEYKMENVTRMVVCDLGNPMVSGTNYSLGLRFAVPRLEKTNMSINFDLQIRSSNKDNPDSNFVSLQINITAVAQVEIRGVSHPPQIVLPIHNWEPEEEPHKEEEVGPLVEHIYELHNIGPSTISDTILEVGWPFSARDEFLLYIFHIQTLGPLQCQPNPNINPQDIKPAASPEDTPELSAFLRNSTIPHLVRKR
Chain of integrin a8b1 (P53708 907-1011 partner limits assumed): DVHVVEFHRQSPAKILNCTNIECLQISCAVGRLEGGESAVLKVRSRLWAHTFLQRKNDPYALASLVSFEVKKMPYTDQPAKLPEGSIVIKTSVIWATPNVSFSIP
Chain of integrin a8b1 (P05556 21-728 limits assumed): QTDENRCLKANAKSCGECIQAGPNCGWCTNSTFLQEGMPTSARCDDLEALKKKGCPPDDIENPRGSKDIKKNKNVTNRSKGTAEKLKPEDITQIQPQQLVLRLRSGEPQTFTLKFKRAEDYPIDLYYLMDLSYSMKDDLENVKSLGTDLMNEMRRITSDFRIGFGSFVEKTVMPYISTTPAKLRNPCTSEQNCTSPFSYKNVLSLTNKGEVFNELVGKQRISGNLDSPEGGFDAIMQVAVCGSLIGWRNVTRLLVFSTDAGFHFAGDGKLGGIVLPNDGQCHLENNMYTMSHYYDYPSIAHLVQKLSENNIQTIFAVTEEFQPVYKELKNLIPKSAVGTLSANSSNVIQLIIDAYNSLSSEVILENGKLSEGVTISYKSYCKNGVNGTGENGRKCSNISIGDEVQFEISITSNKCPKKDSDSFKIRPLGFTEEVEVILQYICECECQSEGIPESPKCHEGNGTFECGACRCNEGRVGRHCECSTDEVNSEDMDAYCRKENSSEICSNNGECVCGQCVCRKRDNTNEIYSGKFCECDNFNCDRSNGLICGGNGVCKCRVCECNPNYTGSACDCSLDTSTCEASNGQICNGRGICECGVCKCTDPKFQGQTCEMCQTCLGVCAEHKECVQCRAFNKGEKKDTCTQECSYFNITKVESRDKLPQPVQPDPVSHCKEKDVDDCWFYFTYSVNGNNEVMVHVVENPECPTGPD
Chain of integrin avb1 (P06756 31-889 limits assumed): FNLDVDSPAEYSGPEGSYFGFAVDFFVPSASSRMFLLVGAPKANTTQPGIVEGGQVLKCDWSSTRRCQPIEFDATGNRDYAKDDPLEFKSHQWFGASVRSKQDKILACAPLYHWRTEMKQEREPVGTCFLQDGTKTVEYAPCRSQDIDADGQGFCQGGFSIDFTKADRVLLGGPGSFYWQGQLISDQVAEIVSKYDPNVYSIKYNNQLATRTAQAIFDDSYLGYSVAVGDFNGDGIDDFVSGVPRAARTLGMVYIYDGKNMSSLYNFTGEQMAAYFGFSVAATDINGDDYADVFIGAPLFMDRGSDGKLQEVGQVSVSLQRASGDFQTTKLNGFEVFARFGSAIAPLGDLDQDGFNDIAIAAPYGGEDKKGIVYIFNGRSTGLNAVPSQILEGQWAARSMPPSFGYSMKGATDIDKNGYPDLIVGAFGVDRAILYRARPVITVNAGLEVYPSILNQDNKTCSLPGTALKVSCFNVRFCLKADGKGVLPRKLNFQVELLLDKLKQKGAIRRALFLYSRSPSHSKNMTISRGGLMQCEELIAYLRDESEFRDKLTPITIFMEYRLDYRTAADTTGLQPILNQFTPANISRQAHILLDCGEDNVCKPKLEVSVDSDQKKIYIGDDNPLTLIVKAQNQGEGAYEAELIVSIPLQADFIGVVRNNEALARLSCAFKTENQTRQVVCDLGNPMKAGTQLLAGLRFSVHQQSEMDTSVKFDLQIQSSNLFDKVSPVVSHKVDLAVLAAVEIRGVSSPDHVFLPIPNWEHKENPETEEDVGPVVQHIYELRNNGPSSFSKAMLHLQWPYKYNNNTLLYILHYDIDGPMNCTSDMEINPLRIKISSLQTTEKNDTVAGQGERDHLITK
Chain of integrin avb1 (P06756 891-992 partner limits assumed): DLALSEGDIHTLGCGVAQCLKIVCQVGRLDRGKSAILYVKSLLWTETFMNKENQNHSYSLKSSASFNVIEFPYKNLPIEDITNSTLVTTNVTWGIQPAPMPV
Chain of integrin avb1 (P05556 21-728 limits assumed): as the sequence (P05556 21-728 limits assumed) above

B1: 00179_v4.1: highest affinity α5β1 minibinder, sequence SELIIHGRGDFPSSELERLRERFERLGIKVRVDHKVLTLIGISEEEAERLARELRKRGIWVEIRK (protein)
chain: SELIIHGRGDFPSSELERLRERFERLGIKVRVDHKVLTLIGISEEEAERLARELRKRGIWVEIRK
binding to integrin avb8 (integrin avb8): No detectable binding | binding affinity to α5β1 on the cell surface [1]: Nanomolar binding ability | localization of minibinder sheet with integrin α5 and active β1 staining [2]: colocalized with active form of integrin α5β1 | vascular stability (HUVECs [3]; HUVEC cells, 0, 0.1, 1, 10 and 100 nM, 12-h timepoint): decrease in vascular stability | tube formation (HUVECs [3]; HUVECs, 10 nM and 100 nM, 12 hours, compared to PBS control): significantly attenuated | binding to integrin avb1 (integrin avb1): No detectable binding | cell migration (HUVECs [4]): significant reduction in cell migration | binding to integrin a8b1 (integrin a8b1): No detectable binding | binding to integrin avb6 (integrin avb6): No detectable binding
